Reference: IntAct's records for PubMed 20595257

B1: Aerobic respiration control sensor protein ArcB (Escherichia coli (strain K12)), P0AEC3 (parent)
chain: MKQIRLLAQYYVDLMMKLGLVRFSMLLALALVVLAIVVQMAVTMVLHGQVESIDVIRSIFFGLLITPWAVYFLSVVVEQLEESRQRLSRLVQKLEEMRERDLSLNVQLKDNIAQLNQEIAVREKAEAELQETFGQLKIEIKEREETQIQLEQQSSFLRSFLDASPDLVFYRNEDKEFSGCNRAMELLTGKSEKQLVHLKPADVYSPEAAAKVIETDEKVFRHNVSLTYEQWLDYPDGRKACFEIRKVPYYDRVGKRHGLMGFGRDITERKRYQDALERASRDKTTFISTISHELRTPLNGIVGLSRILLDTELTAEQEKYLKTIHVSAVTLGNIFNDIIDMDKMERRKVQLDNQPVDFTSFLADLENLSALQAQQKGLRFNLEPTLPLPHQVITDGTRLRQILWNLISNAVKFTQQGQVTVRVRYDEGDMLHFEVEDSGIGIPQDELDKIFAMYYQVKDSHGGKPATGTGIGLAVSRRLAKNMGGDITVTSEQGKGSTFTLTIHAPSVAEEVDDAFDEDDMPLPALNVLLVEDIELNVIVARSVLEKLGNSVDVAMTGKAALEMFKPGEYDLVLLDIQLPDMTGLDISRELTKRYPREDLPPLVALTANVLKDKQEYLNAGMDDVLSKPLSVPALTAMIKKFWDTQDDEESTVTTEENSKSEALLDIPMLEQYLELVGPKLITDGLAVFEKMMPGYVSVLESNLTAQDKKGIVEEGHKIKGAAGSVGLRHLQQLGQQIQSPDLPAWEDNVGEWIEEMKEEWRHDVEVLKAWVAKATKK
partner: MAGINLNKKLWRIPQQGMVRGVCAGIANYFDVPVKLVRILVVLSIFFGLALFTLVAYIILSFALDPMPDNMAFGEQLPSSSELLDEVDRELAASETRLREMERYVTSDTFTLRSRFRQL
B2: Phage shock protein C (Escherichia coli (strain K12)), P0AFN2 (parent)
chain: B1 partner
B3: Phage shock protein C (Escherichia coli (strain K12)), P0AFN2 (parent)
chain: B1 partner
partner: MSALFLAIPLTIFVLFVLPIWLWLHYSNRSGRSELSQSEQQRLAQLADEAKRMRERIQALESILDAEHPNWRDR
B4: Aerobic respiration control sensor protein ArcB (Escherichia coli (strain K12)), P0AEC3 (parent)
chain: B1 chain
B5: Aerobic respiration control sensor protein ArcB (Escherichia coli (strain K12)), P0AEC3 (parent)
chain: B1 chain
partner: B3 partner
B6: Phage shock protein B (Escherichia coli (strain K12)), P0AFM9 (parent)
chain: B3 partner
partner: B1 partner

Variants of: B1
Settings: with pspc_ecoli pspC
For L87A;L90A;L94A;M97A, the “effect of a mutation on the interaction” value was “with no effect”.

Variants of: B2
Settings: with pspa_ecoli pspA
MAGINLNKKLWRIPQQGMVRGVCAGIANYFDVPVKLVRILVVLSIFFGLALFTLVAYIILSFALDPMPDNMAFAEQLPSSSELLDEVDRELAASETRLREMERYVTSDTFTLRSRFRQL [G74A] was tested, and the “effect of a mutation on the interaction” value was “with no effect”.
For MAGINLNKKLWRIPQQGMVRGVCAGIANYFDVPVKLVRILVVLSIFFALALFTLVAYIILSFALDPMPDNMAFGEQLPSSSELLDEVDRELAASETRLREMERYVTSDTFTLRSRFRQL [G48A], the “effect of a mutation on the interaction” value was “disrupting interaction strength”.
With MAGINLNKKLWRIPQQGMVRGVCAGIANYFDVPVKLVRILVVLSIFFGLALFTLVAYIILSFALDPMPDNMAFGEQLPSSSELLDEVDREAAASETRAREMERYVTSDTFTLRSRFRQL [L91A;L98A] the “effect of a mutation on the interaction” value was “disrupting interaction strength”.

Variants of: B3
Settings: with pspb_ecoli pspB
MAGINLNKKLWRIPQQGMVRGVCAGIANYFDVPVKLVRILVVLSIFFGLALFTLVAYIILSFALDPMPDNMAFAEQLPSSSELLDEVDRELAASETRLREMERYVTSDTFTLRSRFRQL [G74A] was tested, and the “effect of a mutation on the interaction” value was “with no effect”.
With MAGINLNKKLWRIPQQGMVRGVCAGIANYFDVPVKLVRILVVLSIFFALALFTLVAYIILSFALDPMPDNMAFGEQLPSSSELLDEVDRELAASETRLREMERYVTSDTFTLRSRFRQL [G48A] the “effect of a mutation on the interaction” value was “with no effect”.

Variants of: B4
Settings: with pspa_ecoli pspA
With L87A;L90A;L94A;M97A the “effect of a mutation on the interaction” value was “with no effect”.

Variants of: B5
Settings: with pspb_ecoli pspB
For L87A;L90A;L94A;M97A, the “effect of a mutation on the interaction” value was “with no effect”.

Variants of: B6
Settings: with pspc_ecoli pspC
In the case of MSALFLAIPATIFVAFVAPIWLWLHYSNRSGRSELSQSEQQRLAQLADEAKRMRERIQALESILDAEHPNWRDR [L10A;L15A;L18A], the “effect of a mutation on the interaction” value is reported as “with no effect”.
